In this assay the target is mitoribosomal protein uS12m (human (endogenous in HEK293T), UniProt O15235 30-138). Briefly: cryo-EM structure; recombinant mtIF2 (1 µM) preincubated with GDPNP (2.5 mM), added to the mtIF3-bound mtSSU eluate with fMet-tRNA (1 µM) and MT-CO2 mRNA (1 µM), 30 min at room temperature, buffer A (25 mM HEPES-KOH pH 7.5, 5.0 mM Mg(OAc)2, 100 mM KCl, 0.05% β-DDM). The settings on record: both partners purified.

B1: recombinant human mtIF2 (amino acids 38-727) (natural protein)
chain: SSAYPVWTAQLCAWPWPTDVLTGAALSQYRLLVTKKEEGPWKSQLSSTKSKKVVEVWIGMTIEELARAMEKNTDYVYEALLNTDIDIDSLEADSHLDEVWIKEVITKAGMKLKWSKLKQDKVRKNKDAVRRPQADPALLTPRSPVVTIMGHVDHGKTTLLDKFRKTQVAAVETGGITQHIGAFLVSLPSGEKITFLDTPGHAAFSAMRARGAQVTDIVVLVVAADDGVMKQTVESIQHAKDAQVPIILAVNKCDKAEADPEKVKKELLAYDVVCEDYGGDVQAVPVSALTGDNLMALAEATVALAEMLELKADPNGPVEGTVIESFTDKGRGLVTTAIIQRGTLRKGSVLVAGKCWAKVRLMFDENGKTIDEAYPSMPVGITGWRDLPSAGEEILEVESEPRAREVVDWRKYEQEQEKGQEDLKIIEEKRKEHKEAHQKAREKYGHLLWKKRSILRFLERKEQIPLKPKEKRERDSNVLSVIIKGDVDGSVEAILNIIDTYDASHECELELVHFGVGDVSANDVNLAETFDGVIYGFNVNAGNVIQQSAAKKGVKIKLHKIIYRLVEDLQEELSSRLPCAVEEHPVGEASILATFSVTEGKKKVPVAGCRVQKGQLEKQKKFKLTRNGHVIWKGSLTSLKHHKDDISIVKTGMDCGLSLDEDNMEFQVGDRIVCYEEKQIQAKTSWDPGF
notes: mitochondrial translation initiation factor 2 (mtIF2), human, mature form, amino acids 38-727, codon-optimised construct in pET-24b; also called mtIF2-GDPNP; source: E. coli Rosetta 2, purified (His-Select Ni2+ resin, Superdex 200)
On to B1, for which the binding result is recorded as “binds”.

Source of the values: PMC7287080, “Distinct pre-initiation steps in human mitochondrial translation” (Nature Communications, 2020).
